# Results: patent publication US20200297818A1 (ZEALAND PHARMA A S, published 2020)
# Where a chain is given by its changes, count along the chain named.
# T1: human GLP-2 receptor (hGLP2-R) (human, UniProt O95838 1-553)
# T1 sequence (looked up): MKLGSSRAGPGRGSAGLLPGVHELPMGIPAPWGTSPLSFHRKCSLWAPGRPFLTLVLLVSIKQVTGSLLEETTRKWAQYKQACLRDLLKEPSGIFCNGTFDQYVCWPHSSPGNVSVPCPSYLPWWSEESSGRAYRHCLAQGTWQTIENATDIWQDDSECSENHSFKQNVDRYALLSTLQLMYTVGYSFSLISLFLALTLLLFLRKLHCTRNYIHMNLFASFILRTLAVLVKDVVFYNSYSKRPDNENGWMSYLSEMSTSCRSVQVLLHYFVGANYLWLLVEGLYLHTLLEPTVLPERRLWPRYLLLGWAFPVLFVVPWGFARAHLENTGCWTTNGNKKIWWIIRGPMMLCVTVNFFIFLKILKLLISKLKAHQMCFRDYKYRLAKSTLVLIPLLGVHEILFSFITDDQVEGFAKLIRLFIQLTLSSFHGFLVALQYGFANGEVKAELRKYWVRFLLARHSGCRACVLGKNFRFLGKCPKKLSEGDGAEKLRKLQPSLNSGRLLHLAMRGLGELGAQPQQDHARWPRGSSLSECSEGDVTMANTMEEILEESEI
# B1: Compound 15 (peptide)
# peptide: HXEGTFTSELATILDXLAARDFIAWLIAHKITD
# HELM: PEPTIDE1{H.[Aib].E.G.T.F.T.S.E.L.A.T.I.L.D.K.L.A.A.R.D.F.I.A.W.L.I.A.H.K.I.T.D}|PEPTIDE2{[O=C(O)CCCCCCCCCCCCCCCCC(=O)[*:2]].[gGlu]}$PEPTIDE1,PEPTIDE2,16:R3-2:R2$$$V2.0
# SMILES: CC[C@H](C)[C@H](NC(=O)[C@H](CC(C)C)NC(=O)[C@H](Cc1c[nH]c2ccccc12)NC(=O)[C@H](C)NC(=O)[C@@H](NC(=O)[C@H](Cc1ccccc1)NC(=O)[C@H](CC(=O)O)NC(=O)[C@H](CCCNC(=N)N)NC(=O)[C@H](C)NC(=O)[C@H](C)NC(=O)[C@H](CC(C)C)NC(=O)[C@H](CCCCNC(=O)CC[C@H](NC(=O)CCCCCCCCCCCCCCCCC(=O)O)C(=O)O)NC(=O)[C@H](CC(=O)O)NC(=O)[C@H](CC(C)C)NC(=O)[C@@H](NC(=O)[C@@H](NC(=O)[C@H](C)NC(=O)[C@H](CC(C)C)NC(=O)[C@H](CCC(=O)O)NC(=O)[C@H](CO)NC(=O)[C@@H](NC(=O)[C@H](Cc1ccccc1)NC(=O)[C@@H](NC(=O)CNC(=O)[C@H](CCC(=O)O)NC(=O)C(C)(C)NC(=O)[C@@H](N)Cc1c[nH]cn1)[C@@H](C)O)[C@@H](C)O)[C@@H](C)O)[C@@H](C)CC)[C@@H](C)CC)C(=O)N[C@@H](C)C(=O)N[C@@H](Cc1c[nH]cn1)C(=O)N[C@@H](CCCCN)C(=O)N[C@H](C(=O)N[C@H](C(=O)N[C@@H](CC(=O)O)C(=O)O)[C@@H](C)O)[C@@H](C)CC
# B2: Compound 16 (peptide)
# peptide: B1 peptide with L17E, D21L, A28E
# HELM: PEPTIDE1{H.[Aib].E.G.T.F.T.S.E.L.A.T.I.L.D.K.E.A.A.R.L.F.I.A.W.L.I.E.H.K.I.T.D}|PEPTIDE2{[O=C(O)CCCCCCCCCCCCCCCCC(=O)[*:2]].[gGlu]}$PEPTIDE1,PEPTIDE2,16:R3-2:R2$$$V2.0
# SMILES: CC[C@H](C)[C@H](NC(=O)[C@H](Cc1ccccc1)NC(=O)[C@H](CC(C)C)NC(=O)[C@H](CCCNC(=N)N)NC(=O)[C@H](C)NC(=O)[C@H](C)NC(=O)[C@H](CCC(=O)O)NC(=O)[C@H](CCCCNC(=O)CC[C@H](NC(=O)CCCCCCCCCCCCCCCCC(=O)O)C(=O)O)NC(=O)[C@H](CC(=O)O)NC(=O)[C@H](CC(C)C)NC(=O)[C@@H](NC(=O)[C@@H](NC(=O)[C@H](C)NC(=O)[C@H](CC(C)C)NC(=O)[C@H](CCC(=O)O)NC(=O)[C@H](CO)NC(=O)[C@@H](NC(=O)[C@H](Cc1ccccc1)NC(=O)[C@@H](NC(=O)CNC(=O)[C@H](CCC(=O)O)NC(=O)C(C)(C)NC(=O)[C@@H](N)Cc1c[nH]cn1)[C@@H](C)O)[C@@H](C)O)[C@@H](C)O)[C@@H](C)CC)C(=O)N[C@@H](C)C(=O)N[C@@H](Cc1c[nH]c2ccccc12)C(=O)N[C@@H](CC(C)C)C(=O)N[C@H](C(=O)N[C@@H](CCC(=O)O)C(=O)N[C@@H](Cc1c[nH]cn1)C(=O)N[C@@H](CCCCN)C(=O)N[C@H](C(=O)N[C@H](C(=O)N[C@@H](CC(=O)O)C(=O)O)[C@@H](C)O)[C@@H](C)CC)[C@@H](C)CC
# B3: Compound 17 (peptide)
# peptide: B1 peptide with T7S, L17Q, A28Q
# HELM: PEPTIDE1{H.[Aib].E.G.T.F.S.S.E.L.A.T.I.L.D.K.Q.A.A.R.D.F.I.A.W.L.I.Q.H.K.I.T.D}|PEPTIDE2{[O=C(O)CCCCCCCCCCCCCCCCC(=O)[*:2]].[gGlu]}$PEPTIDE1,PEPTIDE2,16:R3-2:R2$$$V2.0
# SMILES: CC[C@H](C)[C@H](NC(=O)[C@H](Cc1ccccc1)NC(=O)[C@H](CC(=O)O)NC(=O)[C@H](CCCNC(=N)N)NC(=O)[C@H](C)NC(=O)[C@H](C)NC(=O)[C@H](CCC(N)=O)NC(=O)[C@H](CCCCNC(=O)CC[C@H](NC(=O)CCCCCCCCCCCCCCCCC(=O)O)C(=O)O)NC(=O)[C@H](CC(=O)O)NC(=O)[C@H](CC(C)C)NC(=O)[C@@H](NC(=O)[C@@H](NC(=O)[C@H](C)NC(=O)[C@H](CC(C)C)NC(=O)[C@H](CCC(=O)O)NC(=O)[C@H](CO)NC(=O)[C@H](CO)NC(=O)[C@H](Cc1ccccc1)NC(=O)[C@@H](NC(=O)CNC(=O)[C@H](CCC(=O)O)NC(=O)C(C)(C)NC(=O)[C@@H](N)Cc1c[nH]cn1)[C@@H](C)O)[C@@H](C)O)[C@@H](C)CC)C(=O)N[C@@H](C)C(=O)N[C@@H](Cc1c[nH]c2ccccc12)C(=O)N[C@@H](CC(C)C)C(=O)N[C@H](C(=O)N[C@@H](CCC(N)=O)C(=O)N[C@@H](Cc1c[nH]cn1)C(=O)N[C@@H](CCCCN)C(=O)N[C@H](C(=O)N[C@H](C(=O)N[C@@H](CC(=O)O)C(=O)O)[C@@H](C)O)[C@@H](C)CC)[C@@H](C)CC
# B4: Compound 18 (peptide)
# peptide: B1 peptide with T5S, L17Q, A28Q
# HELM: PEPTIDE1{H.[Aib].E.G.S.F.T.S.E.L.A.T.I.L.D.K.Q.A.A.R.D.F.I.A.W.L.I.Q.H.K.I.T.D}|PEPTIDE2{[O=C(O)CCCCCCCCCCCCCCCCC(=O)[*:2]].[gGlu]}$PEPTIDE1,PEPTIDE2,16:R3-2:R2$$$V2.0
# SMILES: CC[C@H](C)[C@H](NC(=O)[C@H](Cc1ccccc1)NC(=O)[C@H](CC(=O)O)NC(=O)[C@H](CCCNC(=N)N)NC(=O)[C@H](C)NC(=O)[C@H](C)NC(=O)[C@H](CCC(N)=O)NC(=O)[C@H](CCCCNC(=O)CC[C@H](NC(=O)CCCCCCCCCCCCCCCCC(=O)O)C(=O)O)NC(=O)[C@H](CC(=O)O)NC(=O)[C@H](CC(C)C)NC(=O)[C@@H](NC(=O)[C@@H](NC(=O)[C@H](C)NC(=O)[C@H](CC(C)C)NC(=O)[C@H](CCC(=O)O)NC(=O)[C@H](CO)NC(=O)[C@@H](NC(=O)[C@H](Cc1ccccc1)NC(=O)[C@H](CO)NC(=O)CNC(=O)[C@H](CCC(=O)O)NC(=O)C(C)(C)NC(=O)[C@@H](N)Cc1c[nH]cn1)[C@@H](C)O)[C@@H](C)O)[C@@H](C)CC)C(=O)N[C@@H](C)C(=O)N[C@@H](Cc1c[nH]c2ccccc12)C(=O)N[C@@H](CC(C)C)C(=O)N[C@H](C(=O)N[C@@H](CCC(N)=O)C(=O)N[C@@H](Cc1c[nH]cn1)C(=O)N[C@@H](CCCCN)C(=O)N[C@H](C(=O)N[C@H](C(=O)N[C@@H](CC(=O)O)C(=O)O)[C@@H](C)O)[C@@H](C)CC)[C@@H](C)CC
# Target: human glucagon-like peptide 1 receptor (GLP-1 R) (human, UniProt P43220 24-463)
# Experiment: cell-based or functional assay
row,Binder,EC50 GLP-1 (nM); cAMP response
1,B1,0.25 nM
2,B2,0.073 nM
3,B3,0.9 nM
4,B4,0.19 nM

# Target: T1, human GLP-2 receptor (hGLP2-R)
# Experiment: cell-based or functional assay
row,Binder,EC50 GLP-2 (nM); cAMP response
1,B1,0.16 nM
2,B2,0.68 nM
3,B3,0.33 nM
4,B4,0.21 nM
